“Also recorded” adds a separate entry of the source.
Key:
[1] = system: B. pseudomallei isolates; experiment: microbe, parasite or virus in culture; assay type: cell-based, Burkholderia pseudomallei
[2] = system: B. pseudomallei strains 1026b and MSHR 305; assay type: cell-based, Burkholderia pseudomallei
[3] = system: Bacillus anthracis; assay type: cell-based
[4] = system: Burkholderia mallei; experiment: microbe, parasite or virus in culture; assay type: cell-based
[5] = system: Yersinia pestis; experiment: microbe, parasite or virus in culture; assay type: cell-based

B1: bovine lactoferrin (protein, UniProt P24627 20-708, looked up)
Lactotransferrin: APRKNVRWCTISQPEWFKCRRWQWRMKKLGAPSITCVRRAFALECIRAIAEKKADAVTLDGGMVFEAGRDPYKLRPVAAEIYGTKESPQTHYYAVAVVKKGSNFQLDQLQGRKSCHTGLGRSAGWIIPMGILRPYLSWTESLEPLQGAVAKFFSASCVPCIDRQAYPNLCQLCKGEGENQCACSSREPYFGYSGAFKCLQDGAGDVAFVKETTVFENLPEKADRDQYELLCLNNSRAPVDAFKECHLAQVPSHAVVARSVDGKEDLIWKLLSKAQEKFGKNKSRSFQLFGSPPGQRDLLFKDSALGFLRIPSKVDSALYLGSRYLTTLKNLRETAEEVKARYTRVVWCAVGPEEQKKCQQWSQQSGQNVTCATASTTDDCIVLVLKGEADALNLDGGYIYTAGKCGLVPVLAENRKSSKHSSLDCVLRPTEGYLAVAVVKKANEGLTWNSLKDKKSCHTAVDRTAGWNIPMGLIVNQTGSCAFDEFFSQSCAPGADPKSRLCALCAGDDQGLDKCVPNSKEKYYGYTGAFRCLAEDVGDVAFVKNDTVWENTNGESTADWAKNLNREDFRLLCLDGTRKPVTEAQSCHLAVAPNHAVVSRSDRAAHVKQVLLHQQALFGKNGKNCPDKFCLFKSETKNLLFNDNTECLAKLGGRPTYEEYLGTEYVTAIANLKKCSTSPLLEACAFLTR
Minimal Inhibitory Concentration [1]: >91,429 μg/mL
concentration of bLF at which all isolates were capable of growth (highest concentration tested) [1]: > 91.429 mg/mL
inhibition of growth, overall result in words [1]: not directly inhibited
bacterial growth by T24h compared with positive/untreated control [2]: grew to match or exceed the concentration of the positive control; also recorded: replicate to the same levels as those in the untreated controls
bactericidal effect, overall result in words [2]: much more minor direct bactericidal effect
initial reduction in bacterial concentration [2]: 1 to 2 log10
kill curve: evolution of microbial load during time [2]: impact can be seen at T6h (standalone); also recorded: impact can be seen at T4h (standalone)
Minimal Inhibitory Concentration [3]: >91,400 μg/mL
inhibition of growth, result in words [3]: no observed inhibition of growth
Minimal Inhibitory Concentration [4]: ≧91,400 μg/mL
inhibition of growth, result in words [4]: generally did not inhibit B. mallei growth by itself
Minimal Inhibitory Concentration [5]: >91,400 μg/mL
inhibition of growth, result in words [5]: did not inhibit Y. pestis growth at any concentration by itself

Reference: patent US20150224177A1 (priority 2014, published 2015)
